# According to PMC11761711, “Insights into the flexibility of the domain‐linking loop in actinobacterial coproheme decarboxylase through structures and molecular dynamics simulations” (Protein Science : A Publication of the Protein Society, 2025):
# Target: the molecule itself
# Test: cryo-EM structure; apo-CdChdC, SEC-purified, 70 to 120 uM on grids, single-particle reconstruction with C5 symmetry, 2.27 A
protein,measurement,value
"Corynebacterium diphtheriae coproheme decarboxylase (enzyme, coproheme decarboxylase (ChdC) of Corynebacterium diphtheriae, wild type; Homopentamer; also called CdChdC; apo-CdChdC; source: recombinant, expressed and purified as described previously (Michlits et al. 2020); Ni2+ column, HRV 3C protease cleavage, SEC) MAEKLNFEELNSMQRYSQFAVFRAIPGALGSDRAEIVAQAQSFFDGLETAGKVEVRGIYDLAGCRAEADFMIWWIAEEFEEIQAAFARFRRETVLGQVSEVAWLGNSLHRPAEFNRSHLPSFIMGEIPGDWITVYPFVRSYDWYIMDPQKRRKILAEHGQAARDFPDVRANTVPAFALGDYEWMLAFEAPRLDRIVDLMHKMRYTEARLHVREETPFFTGRRVSEVSELVNVLP",stoichiometry N,5
